From patent US20190322765A1 come the findings set out here.

Assay [1] addresses IL-2R βγ heterodimer on human cells (NK92 cells, NK and T cells of PBMC) (human) (UniProt P14784). In words: cell-based or functional assay.
The target of assay [2] is murine IL-2R α-subunit, recombinant monomeric (murine) (UniProt P01590). In words: SPR, against the human IL-2R α-subunit as reference.
Assay [3] addresses murine IL-2R βγ heterodimer (β knob γ hole Fc fusion) (murine) (UniProt P16297). In words: SPR, against the human IL-2R βγ heterodimer as reference.

Sequence of IL-2R βγ heterodimer on human cells (NK92 cells, NK and T cells of PBMC) (human) (P14784 27-551, chain 1 of 2): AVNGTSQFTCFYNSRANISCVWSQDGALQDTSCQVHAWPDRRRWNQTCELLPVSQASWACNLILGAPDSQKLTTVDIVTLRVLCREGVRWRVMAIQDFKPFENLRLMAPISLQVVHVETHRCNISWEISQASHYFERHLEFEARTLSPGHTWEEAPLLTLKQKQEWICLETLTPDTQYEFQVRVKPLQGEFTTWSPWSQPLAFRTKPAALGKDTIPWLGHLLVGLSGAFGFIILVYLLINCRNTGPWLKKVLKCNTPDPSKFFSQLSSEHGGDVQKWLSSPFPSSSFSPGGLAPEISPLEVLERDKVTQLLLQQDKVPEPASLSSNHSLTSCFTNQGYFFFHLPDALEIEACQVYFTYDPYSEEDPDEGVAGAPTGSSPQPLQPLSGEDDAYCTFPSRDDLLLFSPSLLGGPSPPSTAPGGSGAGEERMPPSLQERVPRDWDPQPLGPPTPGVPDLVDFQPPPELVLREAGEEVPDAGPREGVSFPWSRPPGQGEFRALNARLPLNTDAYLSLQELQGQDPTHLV
Sequence of IL-2R βγ heterodimer on human cells (NK92 cells, NK and T cells of PBMC) (human) (P31785 23-369, chain 2 of 2, further chain): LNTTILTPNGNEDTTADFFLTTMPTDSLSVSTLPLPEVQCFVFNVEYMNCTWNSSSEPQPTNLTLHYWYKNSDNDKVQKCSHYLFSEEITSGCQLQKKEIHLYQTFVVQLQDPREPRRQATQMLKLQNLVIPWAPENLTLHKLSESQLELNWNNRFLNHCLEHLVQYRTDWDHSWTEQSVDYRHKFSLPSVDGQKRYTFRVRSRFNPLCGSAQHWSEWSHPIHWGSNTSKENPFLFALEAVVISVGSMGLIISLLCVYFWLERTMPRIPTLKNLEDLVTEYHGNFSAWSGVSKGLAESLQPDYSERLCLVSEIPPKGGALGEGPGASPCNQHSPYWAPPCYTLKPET
Sequence of murine IL-2R α-subunit, recombinant monomeric (murine) (P01590 22-236 limits assumed): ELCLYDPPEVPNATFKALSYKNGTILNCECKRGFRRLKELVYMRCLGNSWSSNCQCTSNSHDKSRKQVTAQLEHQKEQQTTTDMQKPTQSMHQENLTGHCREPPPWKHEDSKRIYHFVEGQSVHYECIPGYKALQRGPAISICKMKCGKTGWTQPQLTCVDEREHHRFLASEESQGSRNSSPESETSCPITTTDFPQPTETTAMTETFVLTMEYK
Sequence of murine IL-2R βγ heterodimer (β knob γ hole Fc fusion) (murine) (P16297 27-240, chain 1 of 2): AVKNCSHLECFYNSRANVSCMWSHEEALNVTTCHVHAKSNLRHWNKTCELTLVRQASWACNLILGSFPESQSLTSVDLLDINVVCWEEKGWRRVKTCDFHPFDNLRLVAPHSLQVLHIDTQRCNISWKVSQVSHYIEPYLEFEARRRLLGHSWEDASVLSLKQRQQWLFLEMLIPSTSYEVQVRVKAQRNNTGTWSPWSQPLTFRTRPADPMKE
Sequence of murine IL-2R βγ heterodimer (β knob γ hole Fc fusion) (murine) (P34902 23-263, chain 2 of 2, further chain): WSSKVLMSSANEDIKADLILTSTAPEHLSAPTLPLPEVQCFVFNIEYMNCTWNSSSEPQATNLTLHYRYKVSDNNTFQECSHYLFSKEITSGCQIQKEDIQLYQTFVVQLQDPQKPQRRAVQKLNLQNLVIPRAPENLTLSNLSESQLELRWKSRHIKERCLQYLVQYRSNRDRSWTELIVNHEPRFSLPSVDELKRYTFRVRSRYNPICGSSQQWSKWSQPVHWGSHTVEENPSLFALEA

In assay [1], “Proleukin (Novartis/Chiron), commercially available wild-type IL-2 (from UniProt P60568 22-153) (ligand)” yielded an EC50 of IFN-γ release by NK92 cells of 4.1 nM; an EC50 of STAT5 phosphorylation, CD8+ T cells of 1.07 nM; an EC50 of STAT5 phosphorylation, NK cells of 0.222 nM.

Take human IL-2: the fold lower affinity than for the human receptor in assay [2] and in assay [3] was 10 fold throughout.
